{"source": "patent US20060008878A1", "about": "(UNIVERSITY OF CHICAGO, published 2006)", "proteins": {"B1": {"name": "DsRed.M1 (other)", "chain": "MDNTEDVIKEFMQFKVRMEGSVNGHYFEIEGEGEGKPYEGTQTAKLQVTKGGPLPFAWDILSPQFQYGSKAYVKHPADIPDYMKLSFPEGFTWERSMNFEDGGVVEVQQDSSLQDGTFIYKVKFKGVNFPADGPVMQKKTAGWEPSTEKLYPQDGVLKGEISHALKLKDGGHYTCDFKTVYKAKKPVQLPGNHYVDSKLDITNHNEDYTVVEQYEHAEARHSGSQ", "notes": "Purified protein tested for its oligomeric state; also called monomeric DsRed variant; red fluorescent DsRed monomer"}}, "target": "the molecule itself", "assay": "nondenaturing SDS-PAGE or size exclusion chromatography (self-association)", "procedure": "For nondenaturing SDS-PAGE, one μg of each purified DsRed variant or wild-type DsRed was mixed with SDS-containing sample buffer on ice and immediately electrophoresed at 4° C. in a 10% polyacrylamide gel, followed by staining with Coomassie Blue. Additional aliquots of wild-type DsRed and DsRed variants were denatured by boiling prior to electrophoresis."}
{"protein": "B1", "values": [{"measurement": "binding result", "value": "no binding"}]}
